The target of one assay is co-repressor peptide. The assay can be described thus: fluorescence polarisation; fluorescence anisotropy assay in vitro, receptor LBD with co-repressor peptide; conditions not shown (Supplementary Methods).
For another assay, the target named is Gal4-NCoR (ID 1 + 2). The assay can be described thus: mammalian two-hybrid assay (luciferase reporter, HEK293 cells). As to conditions: 20 h, parent: 100, read off a plot. (In general: A reporter such as luciferase makes a cellular process visible.)

With “LXRα ligand-binding domain (LBD) p.M346V (domain or fragment)”, the fold reduction of affinity (against the wild-type LBD) in the assay with co-repressor peptide stood at 2 fold.

As to “LXRα-VP16 (wild-type liver X receptor-α fused to VP16) mutant M346V [human] / Gal4-NCoR (ID 1 + 2) [not stated] chain 1 M346V”, the percent of parent is 12 % WT with Gal4-NCoR (ID 1 + 2) (GOF sub-panel, highest T0901317 (T09) dose plotted (rightmost point)) and 65 % WT in the assay with Gal4-NCoR (ID 1 + 2) (GOF sub-panel, untreated condition (leftmost point, plotted an order of magnitude below the lowest T09 dose)).

For the substance “LXRα-VP16 (wild-type liver X receptor-α fused to VP16) mutant L217P [human] / Gal4-NCoR (ID 1 + 2) [not stated] chain 1 L217P”, the percent of parent in the assay with Gal4-NCoR (ID 1 + 2) (LOF sub-panel, highest T0901317 (T09) dose plotted (rightmost point)) is 100 % WT; with Gal4-NCoR (ID 1 + 2) (LOF sub-panel, untreated condition (leftmost point, plotted an order of magnitude below the lowest T09 dose)), 75 % WT.
